Data set [1] addresses T1, recombinant Flag-tagged Yox1p(151–274) (S. cerevisiae, UniProt P34161 151-274).
T1 sequence (looked up): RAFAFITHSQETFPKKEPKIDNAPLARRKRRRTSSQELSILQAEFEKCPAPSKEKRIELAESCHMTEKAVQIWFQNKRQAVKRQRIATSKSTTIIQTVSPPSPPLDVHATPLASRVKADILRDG
The experiment in a line: pull-down.

The target of data set [2] is Mcm1p(1-98);Yox1p full length (Saccharomyces cerevisiae;Saccharomyces …, UniProt P11746;P34161 1-98;1-385, |). The experiment in a line: immobilized template pull-down.
Data set [3] concerns the target T2, Mcm1p(1-98);Fkh2p(1-458) (Saccharomyces cerevisiae;Saccharomyces …, UniProt P11746;P41813 1-98;1-458, |). As to the kind of experiment: EMSA. Background: Mobility shift assays separate free from complexed probe on a gel.
The target of data set [4] is T3, Mcm1p(1-98) (Saccharomyces cerevisiae, UniProt P11746 1-98). As to the kind of experiment: EMSA.
Data set [5] deals with T2, Mcm1p(1-98);Fkh2p(1-458). As to the kind of experiment: EMSA. This is another data set of the same source.
In data set [6] the target is T3, Mcm1p(1-98). As to the kind of experiment: EMSA. The source holds these as a separate data set.
In data set [7] the target is Mcm1p(1-98);Yox1p(E196H) (Saccharomyces cerevisiae;Saccharomyces …, UniProt P11746;P34161 1-98;151-274, |E196H). As to the kind of experiment: EMSA.
Data set [8] concerns the target Mcm1p(1-98);Yox1p(151-274) recombinant (Saccharomyces cerevisiae;Saccharomyces …, UniProt P11746;P34161 1-98;151-274, |). As to the kind of experiment: EMSA.
For data set [9], the target named is T4, Fkh2p(325-458) (Saccharomyces cerevisiae, UniProt P41813 325-458).
T4 sequence: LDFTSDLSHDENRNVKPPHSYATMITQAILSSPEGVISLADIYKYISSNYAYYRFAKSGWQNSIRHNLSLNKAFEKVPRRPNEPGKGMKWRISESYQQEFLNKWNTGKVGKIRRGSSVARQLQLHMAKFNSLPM
As to the kind of experiment: EMSA.

Data set [10] addresses Mcm1p(1-98);Yox1p(151-274) (Saccharomyces cerevisiae;Saccharomyces …, UniProt P11746;P34161 1-98;151-274, |). The experiment in a line: EMSA.
Data set [11] concerns the target Mcm1p(1-96);Fkh2p full length (Saccharomyces cerevisiae;Saccharomyces …, UniProt P11746;P41813 1-96;1-862, |). As to the kind of experiment: EMSA.
Data set [12] has as its target Mcm1p(1-96);Yox1p(151-274) recombinant;Fkh2p(325-458) (Saccharomyces cerevisiae;Saccharomyces …, UniProt P11746;P34161;P41813 1-96;151-274;325-458, ||). The experiment in a line: EMSA.
The target of data set [13] is T5, Yox1p F163 mutant (Saccharomyces cerevisiae, UniProt P34161 151-274, F163A).
T5 sequence: T1 sequence (looked up) with F13A
The experiment in a line: EMSA.

Data set [14] concerns the target T6, Yox1p(F153A) (Saccharomyces cerevisiae, UniProt P34161 151-274, F153A).
T6 sequence: T1 sequence (looked up) with F3A
The experiment in a line: EMSA.

In data set [15] the target is T7, Yox1p(F155A) (Saccharomyces cerevisiae, UniProt P34161 151-274, F155A).
T7 sequence: T1 sequence (looked up) with F5A
As to the kind of experiment: EMSA.

The target in data set [16] is T8, Yox1p(176-274) recombinant (Saccharomyces cerevisiae, UniProt P34161 176-274).
T8 sequence: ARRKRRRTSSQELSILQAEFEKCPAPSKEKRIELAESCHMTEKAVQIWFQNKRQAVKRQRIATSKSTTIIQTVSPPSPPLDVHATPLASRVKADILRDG
As to the kind of experiment: EMSA.

The target of data set [17] is T9, Yox1p(151-274) recombinant (Saccharomyces cerevisiae, UniProt P34161 151-274).
T9 sequence: T1 sequence (looked up)
As to the kind of experiment: EMSA.

Data set [18] addresses Mcm1p(1-98);Yox1p(N226Q) recombinant (Saccharomyces cerevisiae;Saccharomyces …, UniProt P11746;P34161 1-98;151-274, |N226Q). As to the kind of experiment: competition.
Data set [19] addresses Mcm1p(1-96);Yox1p(151-274) recombinant (Saccharomyces cerevisiae;Saccharomyces …, UniProt P11746;P34161 1-96;151-274, |). The experiment in a line: competition.

Where a chain is given by its changes, count along the chain named. Where two headings read alike, the source gives them in different places.

Sequence of Mcm1p(1-96);Fkh2p full length (P41813 whole entry, one chain of several): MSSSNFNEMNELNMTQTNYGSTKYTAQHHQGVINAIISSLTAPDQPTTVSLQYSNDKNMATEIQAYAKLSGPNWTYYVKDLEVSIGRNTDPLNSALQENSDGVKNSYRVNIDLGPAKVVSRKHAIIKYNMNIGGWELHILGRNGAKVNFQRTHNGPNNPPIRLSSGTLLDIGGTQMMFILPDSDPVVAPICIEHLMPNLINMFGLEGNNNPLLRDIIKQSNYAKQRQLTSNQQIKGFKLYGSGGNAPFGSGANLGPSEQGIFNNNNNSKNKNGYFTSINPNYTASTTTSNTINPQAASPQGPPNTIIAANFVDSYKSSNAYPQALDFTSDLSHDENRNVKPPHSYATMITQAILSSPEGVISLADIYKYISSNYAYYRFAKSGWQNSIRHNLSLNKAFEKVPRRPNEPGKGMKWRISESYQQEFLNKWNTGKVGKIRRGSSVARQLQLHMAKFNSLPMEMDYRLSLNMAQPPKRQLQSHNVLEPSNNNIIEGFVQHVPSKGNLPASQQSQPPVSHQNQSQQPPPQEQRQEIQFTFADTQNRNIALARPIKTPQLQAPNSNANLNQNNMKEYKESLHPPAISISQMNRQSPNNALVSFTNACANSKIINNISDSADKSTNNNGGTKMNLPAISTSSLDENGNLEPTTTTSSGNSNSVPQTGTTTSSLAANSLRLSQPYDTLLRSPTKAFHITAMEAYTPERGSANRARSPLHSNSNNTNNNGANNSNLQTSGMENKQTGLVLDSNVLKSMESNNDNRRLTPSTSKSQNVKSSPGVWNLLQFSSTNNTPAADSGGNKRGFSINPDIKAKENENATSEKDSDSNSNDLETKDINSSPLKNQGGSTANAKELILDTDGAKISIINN
Sequence of Mcm1p(1-98);Yox1p full length (P34161 whole entry, one chain of several): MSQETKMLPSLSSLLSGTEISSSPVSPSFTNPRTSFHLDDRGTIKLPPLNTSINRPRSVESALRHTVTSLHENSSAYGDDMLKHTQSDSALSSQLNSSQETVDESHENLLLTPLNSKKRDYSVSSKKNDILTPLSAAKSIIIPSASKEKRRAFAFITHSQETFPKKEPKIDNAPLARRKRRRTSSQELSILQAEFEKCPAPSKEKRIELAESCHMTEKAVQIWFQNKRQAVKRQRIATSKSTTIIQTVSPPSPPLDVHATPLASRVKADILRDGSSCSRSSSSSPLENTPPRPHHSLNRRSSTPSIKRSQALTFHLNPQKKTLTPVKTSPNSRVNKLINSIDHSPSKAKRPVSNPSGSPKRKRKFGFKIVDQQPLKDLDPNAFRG

B1: MBP-Mcm1p(1–96) (domain or fragment, S. cerevisiae, UniProt P11746 1-96, looked up)
chain: MSDIEEGTPTNNGQQKERRKIEIKFIENKTRRHVTFSKRKHGIMKKAFELSVLTGTQVLLLVVSETGLVYTFSTPKFEPIVTQQEGRNLIQACLNA
With B1, the binding result in data set [1] is “binds”.

B2: SPO12 WT biotin (dsDNA)
DNA 1: TCGAGGTTAATATCTTTTCCTAATTTGGAAATATGTAAACAGGGC
DNA 2: TCGAGCCCTGTTTACATATTTCCAAATTAGGAAAAGATATTAACC
With B2, the binding result in data set [2] is recorded as “binds”.

B3: SPO12 mut (Yox1p site) (dsDNA)
DNA 1: B2 DNA 1 with A10G, T11G
DNA 2: B2 DNA 2 with A39C, T40C
On to B3, for which the binding result in data set [3] and in data set [4] was “binds” in each case.

B4: SPO12 WT (dsDNA)
DNA 1: B2 DNA 1
DNA 2: B2 DNA 2
Consider B4, for which the binding result in [5], in data set [6], in data set [7], in [8], in data set [9] and in data set [10] was “binds” throughout. The binding result in data set [11], in data set [12], in data set [13], in [14], in data set [15] and in [16] was “binds” each time. For the same molecule, the binding result in data set [17] is “binds”; in data set [18], “no binding”; in data set [19], “binds”.

For the origin of these results see paper PMC3566586 (Molecular Cell, 2010).
